Biological target: RON on RON-transfected NIH 3T3 cells (UniProt Q04912)
Experiment: IHC on FFPE RON-transfected NIH3T3 cells, Aperio Positive Pixel Count

- Relative Positive Pixel Intensity Score: 221
Substance: EP1132Y antibody (Anti-RON)

Source: US20150118238A1
